B1: anti-P-cadherin scFv 153 alanine-mutant L1.12-Ala (scFv, V domains shown)
VH: EVQLVQSGAEVKKPGASVKVSCKASGYTFTSYGISWVRQAPGQGLEWMGWISAYNGNTNYAQKLQGRVTMTTDTSTSTAYMELRSLRSDDTAVYYCATIDTANAFGIWGQGTMVTVSS
VL: QSVLTQPPSVSAAPGQKVTISCSGSSSNIGNNYASWYQQLPGTAPKLLIYDNNKRPSGIPDRFSGSKSGTSATLGITGLQTGDEADYYCGTWDSSLSGVVFGGGTKLTVL
notes: scFv on phage
B2: anti-P-cadherin scFv 153 alanine-mutant L2.7-Ala (scFv, V domains shown)
VH: EVQLVQSGAEVKKPGASVKVSCKASGYTFTSYGISWVRQAPGQGLEWMGWISAYNGNTNYAQKLQGRVTMTTDTSTSTAYMELRSLRSDDTAVYYCATIDTANAFGIWGQGTMVTVSS
VL: QSVLTQPPSVSAAPGQKVTISCSGSSSNIGNNYVSWYQQLPGTAPKLLIYDNNKRPAGIPDRFSGSKSGTSATLGITGLQTGDEADYYCGTWDSSLSGVVFGGGTKLTVL
notes: scFv on phage
B3: anti-P-cadherin scFv 153 alanine-mutant L2.2-Ala (scFv, V domains shown)
VH: EVQLVQSGAEVKKPGASVKVSCKASGYTFTSYGISWVRQAPGQGLEWMGWISAYNGNTNYAQKLQGRVTMTTDTSTSTAYMELRSLRSDDTAVYYCATIDTANAFGIWGQGTMVTVSS
VL: QSVLTQPPSVSAAPGQKVTISCSGSSSNIGNNYVSWYQQLPGTAPKLLIYDANKRPSGIPDRFSGSKSGTSATLGITGLQTGDEADYYCGTWDSSLSGVVFGGGTKLTVL
notes: scFv on phage
B4: anti-P-cadherin scFv 153 alanine-mutant L3.4-Ala (scFv, V domains shown)
VH: EVQLVQSGAEVKKPGASVKVSCKASGYTFTSYGISWVRQAPGQGLEWMGWISAYNGNTNYAQKLQGRVTMTTDTSTSTAYMELRSLRSDDTAVYYCATIDTANAFGIWGQGTMVTVSS
VL: QSVLTQPPSVSAAPGQKVTISCSGSSSNIGNNYVSWYQQLPGTAPKLLIYDNNKRPSGIPDRFSGSKSGTSATLGITGLQTGDEADYYCGTWASSLSGVVFGGGTKLTVL
notes: scFv on phage
B5: anti-P-cadherin scFv 153 alanine-mutant L2.3-Ala (scFv, V domains shown)
VH: EVQLVQSGAEVKKPGASVKVSCKASGYTFTSYGISWVRQAPGQGLEWMGWISAYNGNTNYAQKLQGRVTMTTDTSTSTAYMELRSLRSDDTAVYYCATIDTANAFGIWGQGTMVTVSS
VL: QSVLTQPPSVSAAPGQKVTISCSGSSSNIGNNYVSWYQQLPGTAPKLLIYDNAKRPSGIPDRFSGSKSGTSATLGITGLQTGDEADYYCGTWDSSLSGVVFGGGTKLTVL
notes: scFv on phage
B6: anti-P-cadherin scFv 153 alanine-mutant L2.4-Ala (scFv, V domains shown)
VH: EVQLVQSGAEVKKPGASVKVSCKASGYTFTSYGISWVRQAPGQGLEWMGWISAYNGNTNYAQKLQGRVTMTTDTSTSTAYMELRSLRSDDTAVYYCATIDTANAFGIWGQGTMVTVSS
VL: QSVLTQPPSVSAAPGQKVTISCSGSSSNIGNNYVSWYQQLPGTAPKLLIYDNNARPSGIPDRFSGSKSGTSATLGITGLQTGDEADYYCGTWDSSLSGVVFGGGTKLTVL
notes: scFv on phage
B7: anti-P-cadherin scFv 153 alanine-mutant L2.6-Ala (scFv, V domains shown)
VH: EVQLVQSGAEVKKPGASVKVSCKASGYTFTSYGISWVRQAPGQGLEWMGWISAYNGNTNYAQKLQGRVTMTTDTSTSTAYMELRSLRSDDTAVYYCATIDTANAFGIWGQGTMVTVSS
VL: QSVLTQPPSVSAAPGQKVTISCSGSSSNIGNNYVSWYQQLPGTAPKLLIYDNNKRASGIPDRFSGSKSGTSATLGITGLQTGDEADYYCGTWDSSLSGVVFGGGTKLTVL
notes: scFv on phage
B8: anti-P-cadherin scFv 153 alanine-mutant L3.3-Ala (scFv, V domains shown)
VH: EVQLVQSGAEVKKPGASVKVSCKASGYTFTSYGISWVRQAPGQGLEWMGWISAYNGNTNYAQKLQGRVTMTTDTSTSTAYMELRSLRSDDTAVYYCATIDTANAFGIWGQGTMVTVSS
VL: QSVLTQPPSVSAAPGQKVTISCSGSSSNIGNNYVSWYQQLPGTAPKLLIYDNNKRPSGIPDRFSGSKSGTSATLGITGLQTGDEADYYCGTADSSLSGVVFGGGTKLTVL
notes: scFv on phage
B9: anti-P-cadherin scFv 153 alanine-mutant L3.2-Ala (scFv, V domains shown)
VH: EVQLVQSGAEVKKPGASVKVSCKASGYTFTSYGISWVRQAPGQGLEWMGWISAYNGNTNYAQKLQGRVTMTTDTSTSTAYMELRSLRSDDTAVYYCATIDTANAFGIWGQGTMVTVSS
VL: QSVLTQPPSVSAAPGQKVTISCSGSSSNIGNNYVSWYQQLPGTAPKLLIYDNNKRPSGIPDRFSGSKSGTSATLGITGLQTGDEADYYCGAWDSSLSGVVFGGGTKLTVL
notes: scFv on phage
B10: anti-P-cadherin scFv 153 alanine-mutant L2.5-Ala (scFv, V domains shown)
VH: EVQLVQSGAEVKKPGASVKVSCKASGYTFTSYGISWVRQAPGQGLEWMGWISAYNGNTNYAQKLQGRVTMTTDTSTSTAYMELRSLRSDDTAVYYCATIDTANAFGIWGQGTMVTVSS
VL: QSVLTQPPSVSAAPGQKVTISCSGSSSNIGNNYVSWYQQLPGTAPKLLIYDNNKAPSGIPDRFSGSKSGTSATLGITGLQTGDEADYYCGTWDSSLSGVVFGGGTKLTVL
notes: scFv on phage
B11: anti-P-cadherin scFv 153 alanine-mutant L3.1-Ala (scFv, V domains shown)
VH: EVQLVQSGAEVKKPGASVKVSCKASGYTFTSYGISWVRQAPGQGLEWMGWISAYNGNTNYAQKLQGRVTMTTDTSTSTAYMELRSLRSDDTAVYYCATIDTANAFGIWGQGTMVTVSS
VL: QSVLTQPPSVSAAPGQKVTISCSGSSSNIGNNYVSWYQQLPGTAPKLLIYDNNKRPSGIPDRFSGSKSGTSATLGITGLQTGDEADYYCATWDSSLSGVVFGGGTKLTVL
notes: scFv on phage
B12: anti-P-cadherin scFv 153 alanine-mutant L2.1-Ala (scFv, V domains shown)
VH: EVQLVQSGAEVKKPGASVKVSCKASGYTFTSYGISWVRQAPGQGLEWMGWISAYNGNTNYAQKLQGRVTMTTDTSTSTAYMELRSLRSDDTAVYYCATIDTANAFGIWGQGTMVTVSS
VL: QSVLTQPPSVSAAPGQKVTISCSGSSSNIGNNYVSWYQQLPGTAPKLLIYANNKRPSGIPDRFSGSKSGTSATLGITGLQTGDEADYYCGTWDSSLSGVVFGGGTKLTVL
notes: scFv on phage
B13: anti-P-cadherin scFv 153 alanine-mutant L1.13-Ala (scFv, V domains shown)
VH: EVQLVQSGAEVKKPGASVKVSCKASGYTFTSYGISWVRQAPGQGLEWMGWISAYNGNTNYAQKLQGRVTMTTDTSTSTAYMELRSLRSDDTAVYYCATIDTANAFGIWGQGTMVTVSS
VL: QSVLTQPPSVSAAPGQKVTISCSGSSSNIGNNYVAWYQQLPGTAPKLLIYDNNKRPSGIPDRFSGSKSGTSATLGITGLQTGDEADYYCGTWDSSLSGVVFGGGTKLTVL
notes: scFv on phage
B14: anti-P-cadherin scFv 153 alanine-mutant L3.6-Ala (scFv, V domains shown)
VH: EVQLVQSGAEVKKPGASVKVSCKASGYTFTSYGISWVRQAPGQGLEWMGWISAYNGNTNYAQKLQGRVTMTTDTSTSTAYMELRSLRSDDTAVYYCATIDTANAFGIWGQGTMVTVSS
VL: QSVLTQPPSVSAAPGQKVTISCSGSSSNIGNNYVSWYQQLPGTAPKLLIYDNNKRPSGIPDRFSGSKSGTSATLGITGLQTGDEADYYCGTWDSALSGVVFGGGTKLTVL
notes: scFv on phage
B15: anti-P-cadherin scFv 153 alanine-mutant L3.5-Ala (scFv, V domains shown)
VH: EVQLVQSGAEVKKPGASVKVSCKASGYTFTSYGISWVRQAPGQGLEWMGWISAYNGNTNYAQKLQGRVTMTTDTSTSTAYMELRSLRSDDTAVYYCATIDTANAFGIWGQGTMVTVSS
VL: QSVLTQPPSVSAAPGQKVTISCSGSSSNIGNNYVSWYQQLPGTAPKLLIYDNNKRPSGIPDRFSGSKSGTSATLGITGLQTGDEADYYCGTWDASLSGVVFGGGTKLTVL
notes: scFv on phage

The binders below were run against T1, P-cadherin-ECD1-3-Fc protein (human P-cadherin-Fc) (human, UniProt P22223 108-440) (assay: phage scFv ELISA, coated P-cadherin-ECD1-3-Fc).
T1 construct: Construct was expressed with signal peptide and pro-peptide (PACE co-transfected to process the propeptide); not shown: hinge and CH2 and CH3 domains of human IgG1
Description: ScFvs may be expressed on the surface of a phage particle. To prepare phage expressing scFv on their surface, 96-deep well plates containing 1 mL 2× TY media with 2% glucose/100 μg/mL ampicillin were inoculated with 0.5-1 μL from thawed glycerol stocks (one clone per well) using the QPix™2 Colony picker (Molecular Devices, Sunnyvale Calif.) and grown at 37° C. (900 rpm) for ˜4 hours. Next, 5 μL of a 1:29 dilution of helper phage (8.3×10¹³ pfu) was added and the plates and incubated for a further 30 minutes at 37° C. with no shaking then 1 hour at 300 rpm. Plates were centrifuged and the media was replaced with a kanamycin/non-glucose containing media (2× TY with 50 μg/mL kanamycin and 100 μg/mL ampicillin). Plates were grown overnight at 25° C. (900 rpm), and phage were harvested in the supernatant following centrifugation.
P-cadherin-ECD1-3-Fc protein or negative control protein was coated overnight at 4° C. on 96-well Nunc Maxisorp® plates (Thermo Fisher Scientific, Madison, Conn.) at a concentration of 2 μg/mL in PBS+Ca²⁺ and Mg²⁺. Plates were washed three times using PBS+Ca²⁺ and Mg²⁺ and blocked for 1 hour at room temperature in 3% milk/PBS+Ca²⁺ and Mg²⁺. Phage samples prepared as described above were added to the blocked plates for 1 hour at room temperature. Plates were washed three times with PBS+Ca²⁺ and Mg²⁺ prior to the addition of secondary antibody (anti M13-HRP 1:2000, GE Healthcare, Piscataway, N.J.). Plates were incubated for a further 1 hour at room temperature and washed six times with PBS+Ca²⁺ and Mg²⁺. Signal was developed using TMB (SurModics, Eden Prairie, Minn.), the reaction stopped with H₂SO₄ and the absorbance read at 450 nm on an EnVision® plate reader (Perkin Elmer, Waltham, Mass.).

T1 sequence (P22223 108-440): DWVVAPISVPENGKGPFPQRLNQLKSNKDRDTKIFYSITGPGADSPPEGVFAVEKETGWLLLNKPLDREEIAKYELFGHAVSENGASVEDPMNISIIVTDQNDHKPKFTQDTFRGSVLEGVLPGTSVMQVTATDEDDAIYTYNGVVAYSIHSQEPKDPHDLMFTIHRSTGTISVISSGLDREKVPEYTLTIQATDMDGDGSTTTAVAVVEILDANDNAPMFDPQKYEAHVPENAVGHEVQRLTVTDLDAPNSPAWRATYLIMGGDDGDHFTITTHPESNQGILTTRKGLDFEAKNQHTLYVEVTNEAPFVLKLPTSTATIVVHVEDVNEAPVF

Compared with B1, B2 is lower in “% of binding of Clone #153 to human P-cadherin-Fc” value: 173% for the first, 163% for the second.

Compared with B3, B4 is lower in “% of binding of Clone #153 to human P-cadherin-Fc” value: 102% for the first, 70% for the second.

Compared with B5, B6 is higher in “% of binding of Clone #153 to human P-cadherin-Fc” value: 74% for the first, 161% for the second.

First: B7
Second: B8
The “% of binding of Clone #153 to human P-cadherin-Fc” value of the first is higher: 172% for the first, 14% for the second.

Compared with B9, B10 is higher in “% of binding of Clone #153 to human P-cadherin-Fc” value: 61% for the first, 170% for the second.

Compared with B11, B12 is lower in “% of binding of Clone #153 to human P-cadherin-Fc” value: 153% for the first, 110% for the second.

Compared with B13, B14 is higher in “% of binding of Clone #153 to human P-cadherin-Fc” value: 171% for the first, 173% for the second.

B15 was tested, and the “% of binding of Clone #153 to human P-cadherin-Fc” value was 163%.

Compared with B1, B2 is lower in “Human P-cadherin-Fc binding (OD450)” value: 2.29 OD450 for the first, 2.16 OD450 for the second.

Compared with B3, B4 is lower in “Human P-cadherin-Fc binding (OD450)” value: 1.35 OD450 for the first, 0.92 OD450 for the second.

First: B5
Second: B6
The “Human P-cadherin-Fc binding (OD450)” value of the first is lower: 0.98 OD450 for the first, 2.13 OD450 for the second.

Compared with B7, B8 is lower in “Human P-cadherin-Fc binding (OD450)” value: 2.28 OD450 for the first, 0.18 OD450 for the second.

First: B9
Second: B10
The “Human P-cadherin-Fc binding (OD450)” value of the first is lower: 0.81 OD450 for the first, 2.25 OD450 for the second.

Going from B11 to B12, the “Human P-cadherin-Fc binding (OD450)” value falls from 2.02 OD450 to 1.45 OD450.

Compared with B13, B14 is higher in “Human P-cadherin-Fc binding (OD450)” value: 2.26 OD450 for the first, 2.29 OD450 for the second.

B15 was tested, and the “Human P-cadherin-Fc binding (OD450)” value was 2.16 OD450.

First: B1
Second: B2
The “Z Score” value of the first is higher: 1.6 for the first, 1.3 for the second.

Going from B3 to B4, the “Z Score” value falls from 0 to -0.6.

Going from B5 to B6, the “Z Score” value rises from -0.5 to 1.3.

First: B7
Second: B8
The “Z Score” value of the first is higher: 1.5 for the first, -1.8 for the second.

Compared with B9, B10 is higher in “Z Score” value: -0.8 for the first, 1.5 for the second.

Compared with B11, B12 is lower in “Z Score” value: 1.1 for the first, 0.2 for the second.

B13 and B14 are the same in “Z Score” value: 1.5 for the first, 1.5 for the second.

B15 was tested, and the “Z Score” value was 1.3.

— patent publication US20160002357A1 (Pfizer, published 2016)
